# Measurements reported in patent publication US20010016194A1 (published 2001).
# Key:
# [1] = biological target: T1, Raf-1 proteins present in human T-cell lysates (human, UniProt P04049 1-648); assay: anti-FLAG affinity column pull-down from 35S-labelled human T-cell lysate, anti-SP-63 immunoblot
# T1 construct: Endogenous protein within a cell lysate, so other lysate proteins were present; also called T-cell derived Raf-1 proteins; cellular Raf-1 serine/threonine kinase
# (His)6-Raf-1 protein = biological target: T2, (His)6-Raf-1 protein (UniProt P04049 1-648, limits assumed); assay: totally cell-free pull-down on anti-FLAG beads, anti-Raf-1 immunoblot
# T2 construct: Made in M15 bacteria and purified on Ni-NTA, or used as bacterial lysate; also called bacterially produced (His)6-Raf-1
# Description: Eluted proteins were separated on SDS-PAGE, transferred onto Immobilon membrane and blotted with anti-Raf-1 antibody.
# [2] = biological target: T1, Raf-1 proteins present in human T-cell …; assay: anti-FLAG bead pull-down from T-cell lysate, anti-Raf-1 immunoblot
Binder,binding result [1],binding result ((His)6-Raf-1 protein),binding result [2]
"FLAG-HMK-IL-2Rβ chain cytoplasmic domain wild type fusion protein (receptor, not shown: small tags and cut ends, Made in BL-21 pLysS bacteria, about 33 kDa; also called FLAG-HMK-IL-2Rβ chain wild type (WT); FLAG-HMK-IL-2Rβ-WT) NCRNTGPWLKKVLKCNTPDPSKFFSQLSSEHGGDVQKWLSSPFPSSSFSPGGLAPEISPLEVLERDKVTQLLLQQDKVPEPASLSSNHSLTSCFTNQGYFFFHLPDALEIEACQVYFTYDPYSEEDPDEGVAGAPTGSSPQPLQPLSGEDDAYCTFPSRDDLLLFSPSLLGGPSPPSTAPGGSGAGEERMPPSLQERVPRDWDPQPLGPPTPGVPDLVDFQPPPELVLREAGEEVPDAGPREGVSFPWSRPPGQGEFRALNARLPLNTDAYLSLQELQGQDPTHLV",binds,,
"FLAG-HMK-IL-2Rβ chain mutant lacking both acidic domain and proline rich C-terminal (A-CT-) (receptor, How it was constructed is not described; also called FLAG-HMK-IL-2Rβ S+; not shown: 17 amino acid FLAG-HMK tag) NCRNTGPWLKKVLKCNTPDPSKFFSQLSSEHGGDVQKWLSSPFPSSSFSPGGLAPEISPLEVLERDKVTQLLL",,no binding,no binding
"FLAG-HMK-IL-2Rβ chain containing only the proline rich C-terminal (CT+) (receptor, How it was constructed is not described; also called FLAG-HMK-IL-2Rβ chain CT+ proteins; not shown: 17 amino acid FLAG-HMK tag) QPLSGEDDAYCTFPSRDDLLLFSPSLLGGPSPPSTAPGGSGAGEERMPPSLQERVPRDWDPQPLGPPTPGVPDLVDFQPPPELVLREAGEEVPDAGPREGVSFPWSRPPGQGEFRALNARLPLNTDAYLSLQELQGQDPTHLV",,,no binding
